Literature values as cited in paper PMC11084152, “Galf-Specific Neolectins: Towards Promising Diagnostic Tools” (International Journal of Molecular Sciences, 2024).

Design: method as in PMID 26148048
Details: β-D-Galf-substituted surface; read-out: functional affinity value

B1: hIntL-1: human intelectin-1, galactofuranosyl-binding lectin used as positive control (protein, UniProt Q8WWA0 19-298, looked up)
Intelectin-1: TDEANTYFKEWTCSSSPSLPRSCKEIKDECPSAFDGLYFLRTENGVIYQTFCDMTSGGGGWTLVASVHENDMRGKCTVGDRWSSQQGSKAVYPEGDGNWANYNTFGSAEAATSDDYKNPGYYDIQAKDLGIWHVPNKSPMQHWRNSSLLRYRTDTGFLQTLGHNLFGIYQKYPVKYGEGKCWTDNGPVIPVVYDFGDAQKTASYYSPYGQREFTAGFVQFRVFNNERAANALCAGMRVTGCNTEHHCIGGGGYFPEASPQQCGDFSGFDWSGYGTHVGYS
For B1, the Kd is given as 85 ± 14 nM.
